In patent US20230159603A1 (published 2023):

B2: rhIL-12RB2-Fc (Fc fusion)
chain: KIDACKRGDVTVKPSHVILLGSTVNITCSLKPRQGCFHYSRRNKLILYKFDRRINFHHGHSLNSQVTGLPLGTTLFVCKLACINSDEIQICGAEIFVGVAPEQPQNLSCIQKGEQGTVACTWERGRDTHLYTEYTLQLSGPKNLTWQKQCKDIYCDYLDFGINLTPESPESNFTAKVTAVNSLGSSSSLPSTFTFLDIVRPLPPWDIRIKFQKASVSRCTLYWRDEGLVLLNRLRYRPSNSRLWNMVNVTKAKGRHDLLDLKPFTEYEFQISSKLHLYKGSWSDWSESLRAQTPEEEPTGMLDVWYMKRHIDYSRQQISLFWKNLSVSEARGKILHYQVTLQELTGGKAMTQNITGHTSWTTVIPRTGNWAVAVSAANSKGSSLPTRINIMNLCEAGLLAPRQVSANSEGMDNILVTWQPPRKDPSAVQEYVVEWRELHPGGDTQVPLNWLRSRPYNVSALISENIKSYICYEIRVYALSGDQGGCSSILGNSKHKAPLSGPHINAITEEKGSILISWNSIPVQEQMGCLLHYRIYWKERDSNSQPQLCEIPYRVSQNSHPINSLQPRVTYVLWMTALTAAGESSHGNEREFCLQGKAN

Columns and labels:
Experiment in all cases: SPR; KD estimated
rhIL-12RB1-Fc = rhIL-12RB1-Fc (human, UniProt P42701 24-545)
rhIL-12RB2-Fc = target: B2
AK384 = target: AK384

B1: recombinant human IL-12 (rhIL-12) control (ligand)
chain 1: IWELKKDVYVVELDWYPDAPGEMVVLTCDTPEEDGITWTLDQSSEVLGSGKTLTIQVKEFGDAGQYTCHKGGEVLSHSLLLLHKKEDGIWSTDILKDQKEPKNKTFLRCEAKNYSGRFTCWWLTTISTDLTFSVKSSRGSSDPQGVTCGAATLSAERVRGDNKEYEYSVECQEDSACPAAEESLPIEVMVDAVHKLKYENYTSSFFIRDIIKPDPPKNLQLKPLKNSRQVEVSWEYPDTWSTPHSYFSLTFCVQVQGKSKREKKDRVFTDKTSATVICRKNASISVRAQDRYYSSSWSEWASVPCS
chain 2: RNLPVATPDPGMFPCLHHSQNLLRAVSNMLQKARQTLEFYPCTSEEIDHEDITKDKTSTVEACLPLELTKNESCLNSRETSFITNGSCLASRKTSFMMALCLSSIYEDLKMYQVEFKTMNAKLLMDPKRQIFLDQNMLAVIDELMQALNFNSETVPQKSSLEEPDFYKTKIKLCILLHAFRIRAVTIDRVMSYLNAS
For B1, the Kd (rhIL-12RB1-Fc) was 60.1 nM and the Kd (rhIL-12RB2-Fc) was 0.617 nM.

Work on B2 yielded a Kd (AK384) of 1.7 nM.
